Measured values taken from patent US20210040232A1 (Regeneron, published 2021).

T1: soluble Macaca fascicularis CTLA-4 expressed with a C-terminal myc-myc-polyhistidine tag (Macaca fascicularis)
T1 construct: soluble protein; also called mf CTLA-4.mmh; mfCTLA4.mmh
T1 chain: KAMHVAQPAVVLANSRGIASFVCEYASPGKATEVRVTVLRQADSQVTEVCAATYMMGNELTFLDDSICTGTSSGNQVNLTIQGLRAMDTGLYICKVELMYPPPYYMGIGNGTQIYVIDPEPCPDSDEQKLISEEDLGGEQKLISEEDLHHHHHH


Columns and labels:
[1] = target: T2, soluble human CTLA-4 expressed with a C-terminal myc-myc-polyhistidine tag (human); test: SPR, mAb capture, 25 C
T2 construct: soluble protein; also called hCTLA-4.mmh; hCTLA4.mmh

[2] = target: T1, soluble Macaca fascicularis CTLA-4 …; test: SPR, mAb capture, 25 C
[3] = target: T3, human CTLA-4 (amino acids M1-N223) on stably transfected VI-fibroblast cells (human, UniProt P16410 36-223); test: ECL cell binding, VI-fibroblast/hCTLA-4 cells;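 further: antibodies bound to the cells on carbon electrode plates, detected via SULFO-TAG anti-IgG secondary (1 h, RT), electrochemiluminescence read as RLU over a concentration range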
T3 construct: also called VI-fibroblast/hCTLA-4

[4] = target: T4, recombinant hCTLA-4-mFc (human CTLA-4 extracellular domain with a C-terminal Fc portion of mouse IgG2a) (human); test: competition ELISA, 200 pM hCTLA-4-mFc on plate-coated hB7-1-hIgG1-6His
T4 construct: also called dimeric CTLA-4 protein

[5] = target: T4, recombinant hCTLA-4-mFc (human CTLA-4 …); test: competition ELISA, 400 pM hCTLA-4-mFc on plate-coated hB7-2-hIgG1-6His

T4 sequence (chain, as listed by the source limits assumed): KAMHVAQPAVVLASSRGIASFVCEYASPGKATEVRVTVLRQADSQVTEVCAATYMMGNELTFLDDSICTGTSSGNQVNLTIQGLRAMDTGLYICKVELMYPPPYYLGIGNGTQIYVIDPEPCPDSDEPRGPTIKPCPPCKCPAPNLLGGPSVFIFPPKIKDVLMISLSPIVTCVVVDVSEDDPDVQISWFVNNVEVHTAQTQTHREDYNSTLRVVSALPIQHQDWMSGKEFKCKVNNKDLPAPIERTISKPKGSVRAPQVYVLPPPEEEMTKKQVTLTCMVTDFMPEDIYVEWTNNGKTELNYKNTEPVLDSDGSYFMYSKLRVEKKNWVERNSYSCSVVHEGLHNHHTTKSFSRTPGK
T3 sequence (P16410 36-223 limits assumed): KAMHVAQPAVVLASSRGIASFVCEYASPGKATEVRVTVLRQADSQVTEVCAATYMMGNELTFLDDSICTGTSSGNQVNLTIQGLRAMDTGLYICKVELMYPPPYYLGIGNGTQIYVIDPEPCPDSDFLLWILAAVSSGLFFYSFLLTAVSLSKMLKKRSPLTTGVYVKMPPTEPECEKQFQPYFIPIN

Row | Binder | Kd [1] | koff [1] | kon [1] | t1/2 [1] | Kd [2] | koff [2] | kon [2] | t1/2 [2] | EC50 [3] | ratio of RLU signal to parental VI-fibroblast at 0.4 nM Ab [3] | % Blockade [4] | IC50 [4] | % Blockade [5] | IC50 [5]
1 | H1H19314P2 (antibody, human IgG1, V domains shown) VH: QVQLVQSGAEVKKPGASVKVSCKASGYTLSSYGISWVRQAPGQGLEWMGWISAYNGNTNYAQKLQGRLTMTTDTSTSTAYMELRSLRSDDTAVYYCSRDGPFKISFFGMDVWGQGTTVTVSS VL: not shown | 9.87 nM | 0.00113 s⁻¹ | 115000 M⁻¹ s⁻¹ | 10.2 min | 8.57 nM | 0.000913 s⁻¹ | 107000 M⁻¹ s⁻¹ | 12.6 min | 3.4 nM | 8 ratio | 0% | – | 7% | –
2 | H1H19312P (antibody, human IgG1, V domains shown) VH: QVQLQESGPGLVKPSETLSLTCTVSGGSISSYHWSWIRQPLGKGLEWIGYIYYSGSTNYNPSLKSRVTISVDTSKNQFSLKLSSVTAADTAVYYCARGGSSIWPFDYWGQGTLVTVSS VL: DIQMTQSPSTLSASVGDRVTITCRASQSISSWLAWYQQKSGKAPKLLISKASTLESGVPSRFSGSGSGTEFTLTISSLQPDDFATYYCQQYNIYSWTFGQGTKVEIK | 3.29 nM | 0.00105 s⁻¹ | 320000 M⁻¹ s⁻¹ | 11 min | 2.28 nM | 0.00076 s⁻¹ | 333000 M⁻¹ s⁻¹ | 15.2 min | 0.7 nM | 14 ratio | 97% | 0.2 nM | 99% | 0.51 nM
3 | H1H19284P (antibody, human IgG1, V domains shown) VH: EVQLVESGGGLVQPGGSLRLSCAASGFTLSNYVMTWVRQAPGKGLEWVSAISGRGGNSYYADSVKGRFSISRDHSKNTLYLQVNSLRAEDTAVYYCAKAERGYSYGFNWFDPWGQGTLVTVSS VL: DIQMTQSPSSVSASAGDRVTITCRASQGISSWLAWYQQKPGKAPKLLIYAASSLQSGVPSRFSGSGSGTDFTLTISSLQPEDFASYYCQQGNNFPLTFGGGTKVEIK | 2.49 nM | 0.000369 s⁻¹ | 148000 M⁻¹ s⁻¹ | 31.3 min | 1.57 nM | 0.000305 s⁻¹ | 194000 M⁻¹ s⁻¹ | 37.9 min | – | 7 ratio | 98% | 0.17 nM | 99% | 0.31 nM
4 | H1H19264P (antibody, human IgG1, V domains shown) VH: QVQLVQSGAEVKKPGASVKVSCKASDYTFTSYGISWVRQAPGQGLEWMGWISVYNGNINYAQKFKGRVTMTTDTSTSTAYMELRSLRSDDMAVYYCARVTQFGMDVWGQGTTVTVSS VL: DIQMTQSPSSLSASVGDRVTITCRASQSISSNLNWYQQNPGKAPKLLIYTTSSLQGGVPSRFSGSGSGTDFTLTISSLQPEDFATYYCQQSFRTPFTFGPGTKVDIK | 12.1 nM | 0.000731 s⁻¹ | 60400 M⁻¹ s⁻¹ | 15.8 min | 20.3 nM | 0.000994 s⁻¹ | 49000 M⁻¹ s⁻¹ | 11.6 min | – | – | 8% | – | 43% | –
5 | H1H19283P (antibody, human IgG1, V domains shown) VH: QVQLVESGGGLVKPGGSLRLSCAASGFTFSDYYMTWIRQAPGKGLEWVSYISSSGGNIFYADSVKGRFTISRDNAKNSLYLQMNSLRGEDTAVYYCARGLEPYHYYYGMDVWGQGTTVTVSS VL: not shown | 3.75 nM | 0.000828 s⁻¹ | 221000 M⁻¹ s⁻¹ | 14 min | 3.11 nM | 0.000683 s⁻¹ | 220000 M⁻¹ s⁻¹ | 16.9 min | 0.79 nM | 7 ratio | 96% | 9.7 nM | 99% | 1.2 nM
6 | H1H19305P (antibody, human IgG1, V domains shown) VH: QVQLQESGPGLVKPSQTLSLTCTVSGGSITSGGYYWSWIRQHPGKGLEWIGYIFYSGITNYNPSLKSRVTISVDTSKNQFSLKLTSVTAADTAVYYCATYNSLRLYYGMDVWGQGTTVTVSS VL: DVVMTQSPLSLPVILGQPASISCRSSQSLVYGDGNTYLNWFQQRPGQSPRRLIYKVSNRDSGVPDRFSGSGSGTDFTLKISRVEAEDVGVYYCMQSTHWPLTFGGGTKVEIK | 4.19 nM | – | – | 9.5 min | – | – | – | – | 0.84 nM | – | 98% | 0.19 nM | 99% | 0.36 nM

Stronger by Kd [1], values ahead:

Row | Kd [1] | koff [1] | kon [1] | t1/2 [1] | Kd [2] | koff [2] | kon [2] | t1/2 [2] | EC50 [3] | ratio of RLU signal to parental VI-fibroblast at 0.4 nM Ab [3] | % Blockade [4] | IC50 [4] | % Blockade [5] | IC50 [5] | Binder
7 | 2.25 nM | 0.000402 s⁻¹ | 179000 M⁻¹ s⁻¹ | 28.8 min | 6.11 nM | 0.00101 s⁻¹ | 166000 M⁻¹ s⁻¹ | 11.4 min | 0.22 nM | 19 ratio | 99% | 0.32 nM | 100% | 0.54 nM | H1H19278P (antibody, human IgG1, V domains shown) VH: QVQLVESGGGVVQPGRSLRLSCAASGFTFSSYGMNWVRQAPGKGLEWVAVTWYDGSNKHYADSVKGRFTISRDNSKNTLYLQMYSLRAEDTAMYYCVRGGHLGAFDIWGQGTMVTVSS VL: EIVLTQSPGTLSLSPGERATLSCRASQSVSSYLAWYQQKPGQAPRLLIYGASSRATGIPDRFSGGGSGTDFTLTISRLEPEDFAVYYCQQYGSSPFTFGPGTKVDIK
8 | 1.43 nM | 0.00076 s⁻¹ | 530000 M⁻¹ s⁻¹ | 15.2 min | 0.887 nM | 0.000463 s⁻¹ | 522000 M⁻¹ s⁻¹ | 25 min | 0.39 nM | 18 ratio | 99% | 0.13 nM | 100% | 0.25 nM | H1H19274P (antibody, human IgG1, V domains shown) VH: QVQLQESGPGLVKPSETLSLTCTVSGGSINSYYWTWIRQPPGKGLEWIGYVYYSGSTTYNPSLKSRVTISVDTSKNQFFLNLNSVTAAETAVYYCARGTLGYYGMDVWGQGTTVTVSS VL: EIVLTQSPGTLSLSPGERATLSCRASQSFSNNYLAWYQQKPGQAPRLLIYGTSIRATGIPDRFSGSGSGTDFTLAISRLEPEDFAVYYCQQYGRSPLTFGGGTKVEIK
9 | 1.31 nM | 0.000284 s⁻¹ | 217000 M⁻¹ s⁻¹ | 40.6 min | 1.4 nM | 0.000292 s⁻¹ | 209000 M⁻¹ s⁻¹ | 39.5 min | 3.7 nM | 7 ratio | 99% | 0.18 nM | 99% | 0.29 nM | H1H19307P (antibody, human IgG1, V domains shown) VH: EVQLVESGGGLVQPGGSLRLACAASGFTFSDYYMDWVRQVPGKGLEWVGRSRDKANSFTTEYVASVKGRFTISREDSKNSVYLQMNSLKTEDTAVYYCARTNYDFSLDVWGQGTTVTVSS VL: DIQMTQSPSSLSASVGDRVTITCRASQDINNYLAWFQQKPGNAPKSLIYAASSLQSGVPSKFSGSGSGTDFTLTISSLQPEDFATYYCQQYSTYPITFGQGTRLEIK
10 | 1.13 nM | 0.000323 s⁻¹ | 285000 M⁻¹ s⁻¹ | 35.7 min | 1.02 nM | 0.000269 s⁻¹ | 263000 M⁻¹ s⁻¹ | 43 min | 0.68 nM | 10 ratio | 99% | 0.15 nM | 99% | 0.25 nM | H1H19294P (antibody, human IgG1, V domains shown) VH: QVQLVQSGAEVKMSGASVRVSCKASGYTFTSYGISWMRQAPGQGLEWMGWITAYNGNSNYAQKLQGRVTMTTDTSTGTAYMELRSLTSDDTAVYYCARRGDYLGVFPYWGQGTLVTVSS VL: DIQMTQSPSSLSASVGDRVTITCRASQSISSYLNWYQQKPGKAPNLLIYTASSLQSGVPSRFSGSGSGTDFTLTISSLQPEDFATYYCQQSYSSPLTFGGGTKVEIK
11 | 1.03 nM | 0.000346 s⁻¹ | 337000 M⁻¹ s⁻¹ | 33.4 min | 0.964 nM | 0.000309 s⁻¹ | 320000 M⁻¹ s⁻¹ | 37.4 min | 1.3 nM | 15 ratio | 99% | 0.11 nM | 100% | 0.2 nM | H1H19280P (antibody, human IgG1, V domains shown) VH: QLQLQESGPGLVKPSETLSLTCIVSGGSTSSNTYYWGWIRQPPGKGLEWIGTIHYSGNPYYDPSLKSRVTISVDTSKNHFSLKLNSVTAADTAVYYCTRQYINFFDFWGQGTLVTVSS VL: EIVLTQSPATLSLSPGERVTLSCRASQSISRYLAWYQQKPGQAPRVLIYDASNRATDIPARFSGSGSGTDFTLTISSLEPEDFAVYYCQQRSNWPITFGQGTRLEIK
12 | 0.752 nM | 0.000261 s⁻¹ | 346000 M⁻¹ s⁻¹ | 44.3 min | 0.763 nM | 0.000259 s⁻¹ | 340000 M⁻¹ s⁻¹ | 44.6 min | 0.24 nM | 18 ratio | 97% | 0.21 nM | 100% | 0.22 nM | H1H19279P (antibody, human IgG1, V domains shown) VH: QVQLVQSGAEVKKPGASVKVSCKASGYTFTDYYIHWVRQAPGQGLEWMGWINPNNGVSNYAQKFQGRVTMTRDTSISTAYMDLIRLRSDDTAVYYCARERASWDYNGVDVWGQGTTVTVSS VL: not shown
